According to IntAct's records for PubMed 15207857:

B1: Glutamate receptor ionotropic, delta-2 (Mus musculus), Q61625 (parent)
chain: MEVFPLLLFLSFCWSRTWDLATADSIIHIGAIFDESAKKDDEVFRTAVGDLNQNEEILQTEKITFSVTFVDGNNPFQAVQEACELMNQGILALVSSIGCTSAGSLQSLADAMHIPHLFIQRSTAGTPRSGCGLTRSNRNDDYTLSVRPPVYLNEVILRVVTEYAWQKFIIFYDSEYDIRGIQEFLDKVSQQGMDVALQKVENNINKMITTLFDTMRIEELNRYRDTLRRAILVMNPATAKSFISEVVETNLVAFDCHWIIINEEINDVDVQELVRRSIGRLTIIRQTFPVPQNISQRCFRGNHRISSSLCDPKDPFAQNMEISNLYIYDTVLLLANAFHKKLEDRKWHSMASLSCIRKNSKPWQGGRSMLETIKKGGVNGLTGDLEFGENGGNPNVHFEILGTNYGEELGRGVRKLGCWNPVTGLNGSLTDKKLENNMRGVVLRVVTVLEEPFVMVSENVLGKPKKYQGFSIDVLDALSNYLGFNYEIYVAPDHKYGSPQEDGTWNGLVGELVFKRADIGISALTITPDRENVVDFTTRYMDYSVGVLLRRAEKTVDMFACLAPFDLSLWACIAGTVLLVGLLVYLLNWLNPPRLQMGSMTSTTLYNSMWFVYGSFVQQGGEVPYTTLATRMMMGAWWLFALIVISSYTANLAAFLTITRIESSIQSLQDLSKQTDIPYGTVLDSAVYQHVRMKGLNPFERDSMYSQMWRMINRSNGSENNVLESQAGIQKVKYGNYAFVWDAAVLEYVAINDPDCSFYTVGNTVADRGYGIALQHGSPYRDVFSQRILELQQSGDMDILKHKWWPKNGQCDLYSSVDAKQKGGALDIKSLAGVFCILAAGIVLSCLIAVLETWWSRRKGSRVPSKEDDKEIDLEHLHRRVNSLCTDDDSPHKQFSTSSIDLTPLDIDTLPTRQALEQISDFRNTHITTTTFIPEQIQTLSRTLSAKAASGFAFGSVPEHRTGPFRHRAPNGGFFRSPIKTMSSIPYQPTPTLGLNLGNDPDRGTSI
B2: Glutamate receptor ionotropic, delta-2 (Mus musculus), Q61625 (parent)
chain: B1 chain
partner: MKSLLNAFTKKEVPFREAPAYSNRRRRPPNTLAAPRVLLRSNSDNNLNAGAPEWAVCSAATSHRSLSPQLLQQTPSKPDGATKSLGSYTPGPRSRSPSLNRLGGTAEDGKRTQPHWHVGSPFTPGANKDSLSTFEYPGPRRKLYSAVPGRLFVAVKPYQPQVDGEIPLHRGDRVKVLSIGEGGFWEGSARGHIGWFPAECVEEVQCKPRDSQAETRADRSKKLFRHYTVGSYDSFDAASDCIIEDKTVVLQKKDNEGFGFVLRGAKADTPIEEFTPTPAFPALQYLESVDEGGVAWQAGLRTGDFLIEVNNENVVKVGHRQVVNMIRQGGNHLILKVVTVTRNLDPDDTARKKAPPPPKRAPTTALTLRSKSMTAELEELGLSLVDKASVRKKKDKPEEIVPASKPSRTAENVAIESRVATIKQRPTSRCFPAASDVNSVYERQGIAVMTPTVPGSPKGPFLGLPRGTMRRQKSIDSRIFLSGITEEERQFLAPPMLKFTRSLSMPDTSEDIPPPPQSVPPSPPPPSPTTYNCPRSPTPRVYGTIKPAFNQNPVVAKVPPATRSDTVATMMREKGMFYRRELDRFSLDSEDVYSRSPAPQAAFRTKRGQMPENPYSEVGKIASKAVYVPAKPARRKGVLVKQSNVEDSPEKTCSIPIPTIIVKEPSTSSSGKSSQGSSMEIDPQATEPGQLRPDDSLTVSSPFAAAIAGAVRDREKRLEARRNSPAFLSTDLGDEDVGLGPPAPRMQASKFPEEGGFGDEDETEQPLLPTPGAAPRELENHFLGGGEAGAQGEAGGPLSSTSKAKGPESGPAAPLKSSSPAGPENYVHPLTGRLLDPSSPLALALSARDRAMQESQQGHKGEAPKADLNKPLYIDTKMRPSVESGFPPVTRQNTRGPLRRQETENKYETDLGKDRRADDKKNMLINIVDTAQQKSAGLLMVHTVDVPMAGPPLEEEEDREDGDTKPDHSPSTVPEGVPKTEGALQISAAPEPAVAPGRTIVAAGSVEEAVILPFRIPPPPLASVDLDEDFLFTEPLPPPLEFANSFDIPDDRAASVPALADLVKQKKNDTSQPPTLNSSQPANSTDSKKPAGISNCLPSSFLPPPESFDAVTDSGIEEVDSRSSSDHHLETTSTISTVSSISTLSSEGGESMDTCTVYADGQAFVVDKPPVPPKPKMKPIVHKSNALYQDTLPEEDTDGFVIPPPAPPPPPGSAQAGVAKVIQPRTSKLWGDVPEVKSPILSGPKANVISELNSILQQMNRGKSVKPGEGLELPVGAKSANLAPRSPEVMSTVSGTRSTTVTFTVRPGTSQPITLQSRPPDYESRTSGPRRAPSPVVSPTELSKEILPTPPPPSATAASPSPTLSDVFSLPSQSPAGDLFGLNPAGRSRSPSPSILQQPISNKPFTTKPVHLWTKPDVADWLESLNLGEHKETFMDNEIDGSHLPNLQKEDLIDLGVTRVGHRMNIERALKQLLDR

Variants of: B1
Details: with shan1_rat Shank1, Q9WV48
Sequence of shan1_rat Shank1, Q9WV48 (Q9WV48 whole entry): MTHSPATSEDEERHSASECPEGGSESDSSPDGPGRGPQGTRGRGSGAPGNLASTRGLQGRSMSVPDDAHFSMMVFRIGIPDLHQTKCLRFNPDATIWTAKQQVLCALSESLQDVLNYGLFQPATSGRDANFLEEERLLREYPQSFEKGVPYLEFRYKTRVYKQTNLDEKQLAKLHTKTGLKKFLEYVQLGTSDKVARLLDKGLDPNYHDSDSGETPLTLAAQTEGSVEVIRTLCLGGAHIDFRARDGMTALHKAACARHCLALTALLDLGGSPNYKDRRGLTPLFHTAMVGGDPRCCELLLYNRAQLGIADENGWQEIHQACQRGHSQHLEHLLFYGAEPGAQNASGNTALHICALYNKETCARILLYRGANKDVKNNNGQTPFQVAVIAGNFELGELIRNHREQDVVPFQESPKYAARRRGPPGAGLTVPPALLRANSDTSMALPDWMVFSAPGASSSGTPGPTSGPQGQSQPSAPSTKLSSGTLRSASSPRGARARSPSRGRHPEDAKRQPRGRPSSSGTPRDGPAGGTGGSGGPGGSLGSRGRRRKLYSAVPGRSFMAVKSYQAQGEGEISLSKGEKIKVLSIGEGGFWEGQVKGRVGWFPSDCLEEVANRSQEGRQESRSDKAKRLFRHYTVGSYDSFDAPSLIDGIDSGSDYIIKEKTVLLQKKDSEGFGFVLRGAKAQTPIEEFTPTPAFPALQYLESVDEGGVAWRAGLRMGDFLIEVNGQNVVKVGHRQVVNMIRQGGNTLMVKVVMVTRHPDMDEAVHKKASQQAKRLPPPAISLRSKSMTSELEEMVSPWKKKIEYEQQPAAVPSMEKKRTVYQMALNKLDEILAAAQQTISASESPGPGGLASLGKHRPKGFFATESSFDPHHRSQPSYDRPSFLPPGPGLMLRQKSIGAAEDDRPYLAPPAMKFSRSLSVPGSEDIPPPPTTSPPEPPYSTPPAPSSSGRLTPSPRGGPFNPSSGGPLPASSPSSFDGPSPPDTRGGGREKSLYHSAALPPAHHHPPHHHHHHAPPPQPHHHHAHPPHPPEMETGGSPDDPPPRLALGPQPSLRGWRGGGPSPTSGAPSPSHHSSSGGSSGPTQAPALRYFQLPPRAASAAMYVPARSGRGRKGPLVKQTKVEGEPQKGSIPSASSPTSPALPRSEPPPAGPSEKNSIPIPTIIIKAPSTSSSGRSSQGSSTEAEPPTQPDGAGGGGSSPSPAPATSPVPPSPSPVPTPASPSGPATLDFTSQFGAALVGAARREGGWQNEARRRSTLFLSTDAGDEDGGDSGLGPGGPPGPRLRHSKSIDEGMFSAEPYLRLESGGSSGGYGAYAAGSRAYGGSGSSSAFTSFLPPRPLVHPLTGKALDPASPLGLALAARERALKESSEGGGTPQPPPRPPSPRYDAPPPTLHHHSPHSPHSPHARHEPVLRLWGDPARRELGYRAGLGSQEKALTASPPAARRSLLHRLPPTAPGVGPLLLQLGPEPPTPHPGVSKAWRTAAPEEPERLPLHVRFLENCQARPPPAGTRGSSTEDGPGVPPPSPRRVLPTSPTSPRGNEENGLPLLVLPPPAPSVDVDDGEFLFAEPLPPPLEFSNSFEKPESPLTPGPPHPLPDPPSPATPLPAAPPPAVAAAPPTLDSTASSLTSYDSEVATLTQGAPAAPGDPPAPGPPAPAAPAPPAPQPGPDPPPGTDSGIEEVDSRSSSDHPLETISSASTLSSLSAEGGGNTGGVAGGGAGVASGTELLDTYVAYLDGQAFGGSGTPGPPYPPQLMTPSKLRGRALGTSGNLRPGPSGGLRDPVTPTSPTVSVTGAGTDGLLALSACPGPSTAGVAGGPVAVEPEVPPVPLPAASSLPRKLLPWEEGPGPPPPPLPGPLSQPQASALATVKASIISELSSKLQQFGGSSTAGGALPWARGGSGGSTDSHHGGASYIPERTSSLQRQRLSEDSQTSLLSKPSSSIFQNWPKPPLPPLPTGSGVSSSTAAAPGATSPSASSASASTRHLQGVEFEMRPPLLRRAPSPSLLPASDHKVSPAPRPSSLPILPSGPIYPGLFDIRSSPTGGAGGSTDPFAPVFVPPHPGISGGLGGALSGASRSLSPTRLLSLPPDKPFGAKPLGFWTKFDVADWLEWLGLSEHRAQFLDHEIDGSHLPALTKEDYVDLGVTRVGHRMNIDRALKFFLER

effect of a mutation on the interaction	Variant
disrupting interaction	T930A;F932A
disrupting interaction	S920A
decreasing interaction	T930A

Variants of: B2
Details: with shan2_mouse Shank2, Q80Z38

effect of a mutation on the interaction	Variant
decreasing interaction	T930A;F932A
disrupting interaction	S920A
decreasing interaction	T930A

Variants of: B2
Details: with shan2_mouse Shank2, Q80Z38
Remark: another data set of the same source

effect of a mutation on the interaction	Variant
disrupting interaction	S920A;T930A;F932A
